This experiment has as its target human TrkA on the surface of TF-1 cells (human), P04629. Description: cell-based or functional assay.

Chain of human TrkA on the surface of TF-1 cells (human), P04629 (P04629 33-796): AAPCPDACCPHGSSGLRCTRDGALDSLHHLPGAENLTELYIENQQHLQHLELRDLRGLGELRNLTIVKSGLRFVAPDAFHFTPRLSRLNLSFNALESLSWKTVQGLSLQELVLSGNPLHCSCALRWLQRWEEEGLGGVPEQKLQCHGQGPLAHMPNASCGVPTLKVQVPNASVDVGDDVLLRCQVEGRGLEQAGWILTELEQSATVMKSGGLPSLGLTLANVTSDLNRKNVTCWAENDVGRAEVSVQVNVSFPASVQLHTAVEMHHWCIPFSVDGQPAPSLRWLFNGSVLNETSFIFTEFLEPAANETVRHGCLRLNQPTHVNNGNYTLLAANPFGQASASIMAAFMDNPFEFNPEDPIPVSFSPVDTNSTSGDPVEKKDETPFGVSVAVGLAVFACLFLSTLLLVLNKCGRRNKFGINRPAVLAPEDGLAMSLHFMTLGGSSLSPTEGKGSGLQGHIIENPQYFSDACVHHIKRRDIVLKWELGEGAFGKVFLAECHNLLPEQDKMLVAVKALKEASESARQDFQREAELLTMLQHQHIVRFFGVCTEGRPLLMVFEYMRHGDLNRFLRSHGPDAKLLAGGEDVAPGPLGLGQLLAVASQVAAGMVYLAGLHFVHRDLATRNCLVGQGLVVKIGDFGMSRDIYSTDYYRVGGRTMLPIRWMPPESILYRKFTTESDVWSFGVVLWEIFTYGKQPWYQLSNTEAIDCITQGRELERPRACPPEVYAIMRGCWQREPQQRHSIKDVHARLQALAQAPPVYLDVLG

B1: MNAC13 mouse antibody (antibody, mouse IgG1, kappa)
heavy: EVKLVESGGGLVQPGGSLKLSCAASGFTFSTYTMSWARQTPEKRLEWVAYISKGGGSTYYPDTVKGRFTISRDNAKNTLYLQMSSLKSEDTALYYCARGAMYGNDFFYPMDYWGQGTSVTVSSKTTPPSVYPLAPGSAAQTNSMVTLGCLVKGYFPEPVTVTWNSGSLSSGVHTFPAVLESDLYTLSSSVTVPSSPRPSETVTCNVAHPASSTKVDKKIVPRDCGCKPCICTVPEVSSVFIFPPKPKDVLTITLTPKVTCVVVDISKDDPEVQFSWFVDDVEVHTAQTQPREEQFNSTFRSVSELPIMHQDWLNGKEFKCRVNSAAFPAPIEKTISKTKGRPKAPQVYTIPPPKEQMAKDKVSLTCMITDFFPEDITVEWQWNGQPAENYKNTQPIMNTNGSYFVYSKLNVQKSNWEAGNTFTCSVLHEGLHNHHTEKSLSHSPGK
light: QIVLTQSPAIMSASLGEEITLTCSASSSVSYMHWYQQKSGTSPKLLIYTTSNLASGVPSRFSGSGSGTFYSLTISSVEAEDAADYYCHQWSSYPWTFGGGTKLEIKADAAPTVSIFPPSSEQLTSGGASVVCFLNNFYPKDINVKWKIDGSERQNGVLNSWTDQDSKDSTYSMSSTLTLTKDEYERHNSYTCEATHKTSTSPIVKSFNRNEC
For the molecule B1, the TF-1 cell proliferation assay IC50 (beta-NGF induced proliferation) is 0.23 µg/mL.

The values above are taken from patent US20170362327A1.
